This data set can be described thus: yeast display, Sf9 membrane polyspecificity reagent, FACS + sequencing; frameworks hold sequencing errors. The gist of the method: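 Synthetic nanobody libraries on Saccharomyces cerevisiae BJ5465 were galactose-induced for 36–48 hours, stained 1 hour at 4 °C with 10% biotinylated, detergent-solubilized Sf9 membrane reagent and enriched on streptavidin microbeads. FACS then separated cells into low and high (top ~1%) gates by anti-HA (expression) and streptavidin (reagent binding) fluorescence. Genes were colony-PCR amplified, MiSeq 2 × 250 sequenced and CDR-length filtered. A clone's polyreactivity label is that of its gate of origin.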
With “QVQLVESGGGLVQAGGSLRLSCAASGFIFYRYAMGWYRQAPGKEREFVASISGSGGRTYFADSVKGRFTISRDNAKNTVYLQMNSLKPEDTAVYYCNVVSKSRISQYVGYSYDYWGQGTQVTVSS”, the “polyreactivity (PSR sort gate)” value is reported as “high polyreactivity”. For “QVQLVESGGGLVQAGGSLRLSCAASGFIFYRYAMGWYRQAPGKERELVATIRYSGGSTYYADSVKGRFTISRDNAKNTVYLQMNSLKPEDTAVYYCNARRRHPSVSRPPYDYWGQGTQVTVSS” the value was “high polyreactivity”. In the case of “QVQLVESGGGLVQAGGSLRLSCAASGFIFYRYTMGCYRQAPGKERELVAGISSRGTRTYYADSVKGRFTISRDNAKNTVYLQMNSLKPEDTAVYYCAKVDGSKRYNYWGQGTQVTVSS” it was “high polyreactivity”; in that of “QVQLVESGGGLVQAGGSLRLSCAASGFIFYSNAMGWYRQAPGKERELVAAISRGGGSTYYADSVKGRITISRDNAKNTVYLQMNSLIPVDTAVYYCAKRRLSPQDDYWGQGTQVTVSS”, “high polyreactivity”; in that of “QVQLVESGGGLVQAGGSLRLSCAASGFIFYSNAMGWYRQAPGKERELVAAISRSGGSTYYADSVKGRFTISRDNAKNTVYLQMNSLKPEDTAVYYCNADYVYRRYGYWGQGSQVTVSS”, “high polyreactivity”. In the case of “QVQLVESGGGLVQAGGSLRLSCAASGFIFYSYAMGWYRQAPGKEREFVAAISRGGGRTYYADSVKGRFTISRDNAKNTVYLHMYSLKQEDTAVFYCATLPNGPHWPEYDYWGQGTQVTVSS” it was “high polyreactivity”. As for “QVQLVESGGGLVQAGGSLRLSCAASGFIFYSYAMGWYRQAPGKERELVAAISFSGSRTYYADSVKGRFTISRDNAKNTVYLQMNSLKPEDTAVYYCAAYYIASRSTRYYYWGQGTQVTVSS”, the “polyreactivity (PSR sort gate)” value is “high polyreactivity”. “QVQLVESGGGLVQAGGSLRLSCAASGFIFYSYAMGWYRQAPGKERELVAAISRSGGITYYADSVKGRFTISRDNAKNTVYLQMNSLKPEDTAVYYCAKVGRGVSSIKDMDSWGQGTQVTVSS”: the “polyreactivity (PSR sort gate)” value is listed as “high polyreactivity”. As for “QVQLVESGGGLVQAGGSLRLSCAASGFIFYSYAMGWYRQAPGKERELVAAITSSGGNTYYADSVKGRFTISRDNAKNTVYLQMNSLKPEDSAVYYCAASSRFWTFYYGIILYDYWGQGTQVTVSS”, the “polyreactivity (PSR sort gate)” value is listed as “high polyreactivity”. In the case of “QVQLVESGGGLVQAGGSLRLSCAASGFIFYSYPMGWYRKAPGKERALVAAITEDGDSTYYADSVKGRFTISRDNAKNTVYLQMNSLKPVDTAVYYCNTDLTFNGTSGDYDYWGQGTQVTVSS” it was “low polyreactivity”; in that of “QVQLVESGGGLVQAGGSLRLSCAASGFIFYTYAMGWYRQAPGKERELVAAITWDGGSTYYADSVKGRFTISRDTAKNTVYLQMNSLKPEDTAVYYCNAEYGYIRGNYGYWGQGTQVTVSS”, “low polyreactivity”. Consider “QVQLVESGGGLVQAGGSLRLSCAASGFIFYVYAMGWYRQAPGKERELVAAISADGGITYYADSVKGRFTISRDNAKNTVYLQMNSLKPEDTAVYYCNTLGDQDAYAGFRLDYWVQGTQVTVSS”, for which the “polyreactivity (PSR sort gate)” value is “low polyreactivity”.

In the case of “QVQLVESGGGLVQAGGSLRLSCAASGFIFYYNAMGWYRQAPGKERELVASISFSGGSTYYADSVKGRFTISRDNAKNTVYLQKNSLKPEDTAVYYCAARYPGGRPWPRYYYWGQGNQVTVSS”, the “polyreactivity (PSR sort gate)” value is on record as “high polyreactivity”.

With “QVQLVESGGGLVQAGGSLRLSCAASGFIFYYNTMGWYRQAPGKERELVASITWSGDTTYYADSVKGRFTISRDNAKNTVYLQMNSLKPEDTAVYYCAAVHYYTYRRYDYWGQGTQVTVSS”, the “polyreactivity (PSR sort gate)” value was “low polyreactivity”.

For “QVQLVESGGGLVQAGGSLRLSCAASGFIFYYNVMGWYRQAPGKERELVAAIRYRGTITYYADSVKGRFTISRDNAKNTVYLQMNSLKPEDTAVYYCARRQRNYYRSSPGGDYWGQGTQVTVSS”, the “polyreactivity (PSR sort gate)” value is given as “low polyreactivity”. For “QVQLVESGGGLVQAGGSLRLSCAASGFIFYYYAMGWYRQAPGKERELVAAISRGGSTYYADSVKGRFTISRDNAKNTVYLQMNSLKPEDTAVYYCAAEAFPVYSYYYWGQGTQVTVSS”, the “polyreactivity (PSR sort gate)” value is reported as “high polyreactivity”.

As for “QVQLVESGGGLVQAGGSLRLSCAASGFIFYYYAMGWYRQAPGKERELVAAITSSGGSTYYADSVKGRFTISRDNAKNTVYLQKNSLKPEDTAVYYCAAYYHGRMDYWGQGTQVTVSS”, the “polyreactivity (PSR sort gate)” value is given as “high polyreactivity”.

Consider “QVQLVESGGGLVQAGGSLRLSCAASGFIFYYYAMGWYRQAPGKVRELVAAISTDGGSTYYADSVKGRFTISRDNAKNTVYLQMNSLKPEDTADYYCNAPYYGWGYWPLEYIRYEYWGQGTQVTVSS”, for which the “polyreactivity (PSR sort gate)” value is “low polyreactivity”. For “QVQLVESGGGLVQAGGSLRLSCAASGFIFYYYAMGWYRQAPGKVRELVAGITATGGSTYYADSVKGRFTISRDNAKNTVYLQMNSLKPEDTAVYYCAAEHGRRATYTWWVIYDYLGQGTQVTVSS” the value was “low polyreactivity”. As for “QVQLVESGGGLVQAGGSLRLSCAASGFIFYYYAMGWYRQAPRKERELVAAISRSGGSTYYADSVKGRFTISRDNAKNTVYLQMNSLKPEDTAVYYCNTVPGTLYFRYDYWGQGTQVTVSS”, the “polyreactivity (PSR sort gate)” value is given as “high polyreactivity”. In the case of “QVQLVESGGGLVQAGGSLRLSCAASGFIFYYYTMGWYRPAPGKERELVAAISRGGGSTYYADSVKGRFTISRDNAKNTVYLQMNSLKPEDTAVYYCALTDRRLGAHQGDYWGQGTQVTVSS” it was “high polyreactivity”. For “QVQLVESGGGLVQAGGSLRLSCAASGFIIARNAMGWYRQAPGKERELVAAISASGGRTYYADSVKGRFTISRDNAKNTVYLKKNSLKPEDTAVYYCAAAVLRYALRFDYWGQGTQVTVSS” the value was “high polyreactivity”; for “QVQLVESGGGLVQAGGSLRLSCAASGFIIGSYTMGWYRQAPGKERELVASITKRGGSTYYADSVKGRFTISRDNAKNTVYFQMNSLKPEDTAVYYCAATYWFSHRSRYDYWGQGTQVTVSS”, “high polyreactivity”. In the case of “QVQLVESGGGLVQAGGSLRLSCAASGFIIHRYAMGWYRQAPGKERELVAVITSGGGSTYYADSVKGRFTISRDNAKNTVYLQMNSLKPEDTAVYYCAAYQPYNSRYRYDYWGQGTQVTVSS” it was “high polyreactivity”.

On to “QVQLVESGGGLVQAGGSLRLSCAASGFIIKFYAMGWYRQAPGKERELVATITFSSGTTYYADSVKGRFTISRDNAKNTVYLQMNSLKPEDTAVYYCAASTLPAWPYDGPAGPRYDYWGQGTQVTVSS”, for which the “polyreactivity (PSR sort gate)” value is “low polyreactivity”. Turning to “QVQLVESGGGLVQAGGSLRLSCAASGFIIQYYAMGWYRQAPGKERELVAVIRSGGSTYYADSVKGRFTISRDNAKNTVFFQMNSLKPEDTAVYYCIARRTYLDRYNYWGQGTQVTVSS”, the “polyreactivity (PSR sort gate)” value was “high polyreactivity”. In the case of “QVQLVESGGGLVQAGGSLRLSCAASGFIIRSYAMGWYRQAPGKERELLAAISSRGGSTYYADSVKGRFTISRDNANNTVYLQINSLKPEDTAVYYCAADWKSKRTDKYDSWGQGTQVTVSS” it was “high polyreactivity”; in that of “QVQLVESGGGLVQAGGSLRLSCAASGFIIRTYAMGWYRQAPGKERELVAAITGRGGTTYYADSVKGRFTISRDNAKNTVDLQMNSLKPEDTAVYYCAARSRDYNYNPYDYWGQGTQVTVSS”, “high polyreactivity”; in that of “QVQLVESGGGLVQAGGSLRLSCAASGFIITSNAMGWYRQAPGKERELVAAITWSGGRTYYADSVKGRFTISRDNAKNTVYLQMNSLKPEDTAVYYCAAGYYKGFTLVRVIFDYWGHGTQVTVSS”, “low polyreactivity”.

Turning to “QVQLVESGGGLVQAGGSLRLSCAASGFIITTYAMGWYRQAPGKERELVAGISSSGGRTYADSVKGRFTISRDNAKNTVYLQMNSLKPEDTAVYYCAREQWRTLVQTDKYKYDYWGQGTQVTVSS”, the “polyreactivity (PSR sort gate)” value is recorded as “high polyreactivity”. In the case of “QVQLVESGGGLVQAGGSLRLSCAASGFIIWYSAMGWYRQAPGKERELVAAIRSGGSTYYADSVKGRFTISRDNAMNTVYLQMNSLKPEDTAVYYCAAGKNVYYFSRSKYGYDYWGQGTQVTVSS” it was “high polyreactivity”; in that of “QVQLVESGGGLVQAGGSLRLSCAASGFIIYGYVMGWYRQAPGKERELVAAINSSSGRTYYADSVKGRFTISRDNAKNTVYLQMNSLKPEDTAVYYCAAYYYGSYDGTPYDYRGQGTQVTVSS”, “low polyreactivity”; in that of “QVQLVESGGGLVQAGGSLRLSCAASGFIIYRYAMGWYRQAPGKEWELVAAISKRGGSTYYADSVKGRFTISRDNAKNTVYLQMNSLKPEDTAVYYCAANRSYVDSTSFGKAYGYWGQGTQVTVSS”, “high polyreactivity”. For “QVQLVESGGGLVQAGGSLRLSCAASGFILARYAMGWYRQAPGKERELVAVISSGGSSTFYADSVKGRFTISRDNAKNTVYLQMKSLKPEDTAVYYCAARYKSSKKVGFDYWGQGTQVTVSS” the value was “high polyreactivity”; for “QVQLVESGGGLVQAGGSLRLSCAASGFILDNYAMGWYRQAPGKERELVAAISGSGGSTYYADSVKGRFTISRDNAKNTVYLQMNSLKPEDTAVYYCNRDRLLRQYDYWGQGTQVTVSS”, “high polyreactivity”; for “QVQLVESGGGLVQAGGSLRLSCAASGFILERYAMGWYRQAPGKERELVAAISSVGNTNYADSVKGRFTITRDNAKNTVYLQMNSLKPEDTAVYYCAAEGAFPIYDYWGQGTQVTVSS”, “low polyreactivity”. In the case of “QVQLVESGGGLVQAGGSLRLSCAASGFILFPYAMGWYRQAPGKERELVAAIRSDDTTYYADSVKGRFTISRDNAKNTVYLQMNSLKPEDTAVYYCNAARTRWATGYDYWGQGTQVTVSS”, the “polyreactivity (PSR sort gate)” value is reported as “low polyreactivity”.

“QVQLVESGGGLVQAGGSLRLSCAASGFILGGYAMGWYRQAPGKERELVAAISWSSGSTYYADSVKGRFTISRDNAKNTVYLQMNSLKPEDTAVYYCAAVGAYDYWGQGTQVSVSS”: the “polyreactivity (PSR sort gate)” value is on record as “low polyreactivity”. For “QVQLVESGGGLVQAGGSLRLSCAASGFILGHNAMGWYRQAPGKERELVSAITWRGRTYYADSVKGRFTISRDNAKNTVYLHMNSLKPEDTAVYYCASDTKFCYGYWGQGTQVTVSS” the value was “high polyreactivity”; for “QVQLVESGGGLVQAGGSLRLSCAASGFILGLNALGWYRHAPGKAWEFVADISWSGDSTYYADSVKGRFTISRDNAKNTVYLQMNSRKPEDTAVYYCPAVWYTSRQKYDYWGQGTQGTVSS”, “low polyreactivity”.

The values above are taken from the nanobody polyreactivity screen of Harvey et al. (2022).
